Source: article PMC5683418 (Molecular cell, 2017)

Molecular target: T1, highly purified Flag-HA-tagged NRF2 (human, UniProt Q16236 1-605)
T1 sequence (looked up): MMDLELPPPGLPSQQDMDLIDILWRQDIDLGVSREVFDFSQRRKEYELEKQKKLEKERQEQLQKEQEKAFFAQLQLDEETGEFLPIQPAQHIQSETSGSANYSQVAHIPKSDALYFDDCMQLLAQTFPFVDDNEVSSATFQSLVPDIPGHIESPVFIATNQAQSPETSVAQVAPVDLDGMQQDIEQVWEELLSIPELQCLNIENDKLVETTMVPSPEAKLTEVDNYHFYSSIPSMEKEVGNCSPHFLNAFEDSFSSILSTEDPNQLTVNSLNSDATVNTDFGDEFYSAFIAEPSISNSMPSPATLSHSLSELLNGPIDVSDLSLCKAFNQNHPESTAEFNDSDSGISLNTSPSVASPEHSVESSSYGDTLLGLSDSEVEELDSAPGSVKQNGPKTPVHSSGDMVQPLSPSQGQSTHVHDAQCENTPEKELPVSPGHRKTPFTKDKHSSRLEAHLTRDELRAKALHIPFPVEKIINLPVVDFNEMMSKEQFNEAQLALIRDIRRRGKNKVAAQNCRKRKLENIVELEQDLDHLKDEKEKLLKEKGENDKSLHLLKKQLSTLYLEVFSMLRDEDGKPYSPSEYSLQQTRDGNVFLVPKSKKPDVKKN
Test: pull-down

B1: GST-ARF (1–64) (domain or fragment, UniProt Q8N726 1-64, looked up)
chain: MVRRFLVTLRIRRACGPPRVRVFVVHIPRLTGEWAAPGAPAAVALVLMLLRSQRLGQQPLPRRP
**Q.** Does B1 bind?
**A.** binds
